Measured values from patent publication US20110038894A1 (NATIONAL HEALTH RESEARCH INSTITUTES, published 2011).

Molecular target: His-tag fused human HLA-A2 heavy chain (His-HLA-A2) with His-Tag fused human β2-microglobulin (His-β2) (human)
Experiment: MHC-peptide complex formation assay: refolding of His-HLA-A2, His-β2m and peptide, sandwich ELISA (W6/32 capture, anti-β2m detection), relative to positive control peptide

Going from GLAEGPLCL (also called TAL6 114-122) [TAL6 peptide No. 10 of Table 1, GLAEGPLCL] to AMLSSVLAA (also called TAL6 89-97) [TAL6 peptide No. 7 of Table 1, AMLSSVLAA], the “Relative binding (%)” value rises from 72.4% to 115%.

First: ALGGIEFIL (also called TAL6 168-176) [TAL6 peptide No. 14 of Table 1, ALGGIEFIL]
Second: IVGGGLLML (also called TAL6 53-61) [TAL6 peptide No. 4 of Table 1, IVGGGLLML]
The “Relative binding (%)” value of the first is higher: 113% for the first, 43.4% for the second.

Going from MLLPAFVFI (also called TAL6 60-68) [TAL6 peptide No. 6 of Table 1, MLLPAFVFI] to ALLCIAANI (also called TAL6 18-26) [TAL6 peptide No. 3 of Table 1, ALLCIAANI], the “Relative binding (%)” value falls from 155% to 53.6%.

Compared with CLIQVINGV (also called TAL6 177-185) [TAL6 peptide No. 15 of Table 1, CLIQVINGV], SLFSILLAL (also called TAL6 161-169) [TAL6 peptide No. 12 of Table 1, SLFSILLAL] is higher in “Relative binding (%)” value: 26.3% for the first, 42.6% for the second.

First: LLMLLPAFV (also called TAL6 58-66) [TAL6 peptide No. 5 of Table 1, LLMLLPAFV]
Second: HIVEWNVSL (also called TAL6 154-162) [TAL6 peptide No. 11 of Table 1, HIVEWNVSL]
The “Relative binding (%)” value of the first is higher: 134% for the first, 91.1% for the second.

Going from MLSSVLAAL (also called TAL6 90-98) [TAL6 peptide No. 8 of Table 1, MLSSVLAAL] to CIGHSLVGL (also called TAL6 9-17) [TAL6 peptide No. 1 of Table 1, CIGHSLVGL], the “Relative binding (%)” value falls from 163% to 93.3%.

Compared with SVLAALIGI (also called TAL6 93-101) [TAL6 peptide No. 9 of Table 1, SVLAALIGI], SILLALGGI (also called TAL6 164-172) [TAL6 peptide No. 13 of Table 1, SILLALGGI] is lower in “Relative binding (%)” value: 158% for the first, 51.8% for the second.

Going from SLVGLALLC (also called TAL6 13-21) [TAL6 peptide No. 2 of Table 1, SLVGLALLC] to VINGVLGGI (also called TAL6 181-189) [TAL6 peptide No. 16 of Table 1, VINGVLGGI], the “Relative binding (%)” value falls from 126% to 59.1%.
